The values below come from article PMC6695210, “Bipartite interface of the measles virus phosphoprotein X domain with the large polymerase protein regulates viral polymerase dynamics” (PLoS Pathogens, 2019).

Positions count from the first letter of the chain named.

Common to all, as to test: native gel or EMSA; native PAGE (3–12% Bis-Tris gradient gels, G-250 additive) of cleared lysates of transfected cells, immunoblot; trimeric and dimeric GCN4 variants as mobility reference
In general terms: A gel shift assay detects complexes by their altered migration in electrophoresis.

Series [1] addresses MeV P with residues 303–377 replaced by the tetrameric mutant of the yeast GCN4 coiled-coil (measles virus (strain IC-B) | yeast) (UniProt Q9WMB4).
Series [2] has as its target MeV P-GCN4_(303-360), P with OD residues 303–360 replaced by the tetrameric mutant of the yeast GCN4 coiled-coil (measles virus (strain IC-B) | yeast) (UniProt Q9WMB4).
Series [3] deals with the molecule itself.

Turning to “MeV P with residues 303–377 replaced by the tetrameric mutant of the yeast GCN4 coiled-coil (from UniProt Q9WMB4 1-302; Q9WMB4 378-507)”, the stoichiometry N in series [1] is 4.

“MeV P-GCN4_(303-360), P with OD residues 303–360 replaced by the tetrameric mutant of the yeast GCN4 coiled-coil (from UniProt Q9WMB4 1-302; Q9WMB4 361-507)” registered a stoichiometry N in series [2] of 4.

B1: MeV P (361–364)Ala, P with residues 361–364 substituted with alanines (natural protein, measles virus (strain IC-B), UniProt Q9WMB4 1-507, looked up)
chain: MAEEQARHVKNGLECIRALKAEPIGSLAVEEAMAAWSEISDNPGQDRATCKEEEAGSSGLSKPCLSAIGSTEGGAPRIRGQGSGESDDDAETLGIPSRNLQASSTGLQCYHVYDHSGEAVKGIQDADSIMVQSGLDGDSTLSGGDDESENSDVDIGEPDTEGYAITDRGSAPISMGFRASDVETAEGGEIHELLKLQSRGNNFPKLGKTLNVPPPPNPSRASTSETPIKKGTDARLASFGTEIASLLTGGATQCARKSPSEPSGPGAPAGNVPECVSNAALIQEWTPESGTTISPRSQNNEEGGDYYDDELFSDVQDIKTALAKIHEDNQKIISKLESLLLLKGEVESIKKQINRQNISIAAAAGHLSSIMIAIPGLGKDPNDPTADVELNPDLKPIIGRDSGRALAEVLKKPVASRQLQGMTNGRTSSRGQLLKEFQLKPIGKKVSSAVGFVPDTGPASRSVIRSIIKSSRLEEDRKRYLMTLLDDIKGANDLAKFHQMLMKIIMK
notes: MeV strain IC-B phosphoprotein P; of the old residues only S361 is printed in the text; also called M1; source: transiently transfected cells, in lysate; not shown: HA, C-terminal, kept
With B1, the “stoichiometry N” value in series [3] turned out to be 4.

B2: MeV phosphoprotein (P), wild type (natural protein)
chain: B1 chain with A361S, A362T, A363L, A364E
notes: measles virus (MeV) strain IC-B phosphoprotein P, codon-optimized synthetic ORF; ends at residue 507 by the printed limits of P-XD (459–507); also called wild type P; wt P; not shown: HA, C-terminal, kept
For the molecule B2, in series [3], the “stoichiometry N” value is 4.

The stoichiometry N is a count of units in the complex or per binding partner.
